System: HLA class I (A2) on T2 cells
Assay: restoration of surface expression of HLA class I (A2) on transfected T2 cells, flow cytometry
Format: cell-based, human
Settings: for Mean fluorescence of HLA class 1 (A2) Mean ± SD / surface expression of HLA/MHC class I: T2 cells transfected with the named cDNAs; for Mean fluorescence of HLA class 1 (A2) Mean ± SD: four separate experiments, at least three stable clones; for surface expression of HLA/MHC class I: in words
Protocol: Plasmid DNAs were prepared using MAXI-PREP kits (Qiagen). TAP1- and TAP2-deficient T2 cells (donated by P. Cresswell, Howard Hughes Medical Institute, Yale University) (1-2×10^7 cells/ml) were transfected by electroporation with 10 μg of TAP1 and TAP2 or TAP2iso linear plasmid DNA in a 0.4-cm cuvette at 260 V and 960 μF. Subcloning and selection of transfectants were performed by culturing in the presence of hygromycin (250 μg/ml) or histidinol ([…]) for the PREP 4 and PREP8 vectors, respectively.
Immune complexes were detected with fluorescein isothiocyanate-conjugated goat anti-mouse IgG antibodies (Coulter, Hialeah, Fla.) and an Epics Elite flow cytometer (Coulter).
T2 cells were transfected with TAP1 cDNA in combination with TAP2 or TAPiso cDNAs as described above.

Row | Molecule | Mean fluorescence of HLA class 1 (A2) Mean ± SD | surface expression of HLA/MHC class I | surface MHC class I expression, greater than in cells transfected with TAP1-TAP2 cDNAs (transfected T2 cells)
1 | TAP1: known TAP1 subunit (TAP1 A allele cDNA) (protein) MASSRCPAPRGCRCLPGASLAWLGTVLLLLADWVLLRTALPRIFSLLVPTALPLLRVWAVGLSRWAVLWLGACGVLRATVGSKSENAGAQGWLAALKPLAAALGLALPGLALFRELISWGAPGSADSTRLLHWGSHPTAFVVSYAAALPAAALWHKLGSLWVPGGQGGSGNPVRRLLGCLGSETRRLSLFLVLVVLSSLGEMAIPFFTGRLTDWILQDGSADTFTRNLTLMSILTIASAVLEFVGDGIYNNTMGHVHSHLQGEVFGAVLRQETEFFQQNQTGNIMSRVTEDTSTLSDSLSENLSLFLWYLVRGLCLLGIMLWGSVSLTMVTLITLPLLFLLPKKVGKWYQLLEVQVRESLAKSSQVAIEALSAMPTVRSFANEEGEAQKFREKLQEIKTLNQKEAVAYAVNSWTTSISGMLLKVGILYIGGQLVTSGAVSSGNLVTFVLYQMQFTQAVEVLLSIYPRVQKAVGSSEKIFEYLDRTPRCPPSGLLTPLHLEGLVQFQDVSFAYPNRPDVLVLQGLTFTLRPGEVTALVGPNGSGKSTVAALLQNLYQPTGGQLLLDGKPLPQYEHRYLHRQVAAVGQEPQVFGRSLQENIAYGLTQKPTMEEITAAAVKSGAHSFISGLPQGYDTEVDEAGSQLSGGQRQAVALARALIRKPCVLILDDATSALDANSQLQVEQLLYESPERYSRSVLLITQHLSLVEQADHILFLEGGAIREGGTHQQLMEKKGCYWAMVQAPADAPE | 5.19 ± .35 | no effect | –
2 | TAP1/TAP2iso: novel TAP heterodimer of TAP1 and splice variant TAP2iso, expressed from transfected cDNAs (protein) chain 1: MASSRCPAPRGCRCLPGASLAWLGTVLLLLADWVLLRTALPRIFSLLVPTALPLLRVWAVGLSRWAVLWLGACGVLRATVGSKSENAGAQGWLAALKPLAAALGLALPGLALFRELISWGAPGSADSTRLLHWGSHPTAFVVSYAAALPAAALWHKLGSLWVPGGQGGSGNPVRRLLGCLGSETRRLSLFLVLVVLSSLGEMAIPFFTGRLTDWILQDGSADTFTRNLTLMSILTIASAVLEFVGDGIYNNTMGHVHSHLQGEVFGAVLRQETEFFQQNQTGNIMSRVTEDTSTLSDSLSENLSLFLWYLVRGLCLLGIMLWGSVSLTMVTLITLPLLFLLPKKVGKWYQLLEVQVRESLAKSSQVAIEALSAMPTVRSFANEEGEAQKFREKLQEIKTLNQKEAVAYAVNSWTTSISGMLLKVGILYIGGQLVTSGAVSSGNLVTFVLYQMQFTQAVEVLLSIYPRVQKAVGSSEKIFEYLDRTPRCPPSGLLTPLHLEGLVQFQDVSFAYPNRPDVLVLQGLTFTLRPGEVTALVGPNGSGKSTVAALLQNLYQPTGGQLLLDGKPLPQYEHRYLHRQVAAVGQEPQVFGRSLQENIAYGLTQKPTMEEITAAAVKSGAHSFISGLPQGYDTEVDEAGSQLSGGQRQAVALARALIRKPCVLILDDATSALDANSQLQVEQLLYESPERYSRSVLLITQHLSLVEQADHILFLEGGAIREGGTHQQLMEKKGCYWAMVQAPADAPE chain 2: MRLPDLRPWTSLLLVDAALLWLLQGPLGTLLPQGLPGLWLEGTLRLGGLWGLLKLRGLLGFVGTLLLPLCLATPLTVSLRALVAGASRAPPARVASAPWSWLLVGYGAAGLSWSLWAVLSPPGAQEKEQDQVNNKVLMWRLLKLSRPDLPLLVAAFFFLVLAVLGETLIPHYSGRVIDILGGDFDPHAFASAIFFMCLFSFGSSLSAGCRGGCFTYTMSRINLRIREQLFSSLLRQDLGFFQETKTGELNSRLSSDTTLMSNWLPLNANVLLRSLVKVVGLYGFMLSISPRLTLLSLLHMPFTIAAEKVYNTRHQEVLREIQDAVARAGQVVREAVGGLQTVRSFGAEEHEVCRYKEAKEQCRQLYWRRDLERALYLLIRRVLHLGVQMLMLSCGLQQMQDGELTQGSLLSFMIYQESVGSYVQTLVYIYGDMLSNVGAAEKVFSYMDRQPNLPSPGTLAPTTLQGVVKFQDVSFAYPNRPDRPVLKGLTFTLRPGEVTALVGPNGSGKSTVAALLQNLYQPTGGQVLLDEKPISQYEHCYLHSQVVSVGQEPVLFSGSVRNNIAYGLQSCEDDKVMAAAQAAHADDFIQEMEHGIYTDVGEKGSQLAAGQKQRLAIARALVRDPRVLILDEATSALDVQCEQAKTLWKFMIF | 11.16 ± .50 | restored surface expression | 30%
3 | TAP1/TAP2: previously known TAP transporter, heterodimer of the TAP1 and TAP2 gene products (protein) chain 1: MASSRCPAPRGCRCLPGASLAWLGTVLLLLADWVLLRTALPRIFSLLVPTALPLLRVWAVGLSRWAVLWLGACGVLRATVGSKSENAGAQGWLAALKPLAAALGLALPGLALFRELISWGAPGSADSTRLLHWGSHPTAFVVSYAAALPAAALWHKLGSLWVPGGQGGSGNPVRRLLGCLGSETRRLSLFLVLVVLSSLGEMAIPFFTGRLTDWILQDGSADTFTRNLTLMSILTIASAVLEFVGDGIYNNTMGHVHSHLQGEVFGAVLRQETEFFQQNQTGNIMSRVTEDTSTLSDSLSENLSLFLWYLVRGLCLLGIMLWGSVSLTMVTLITLPLLFLLPKKVGKWYQLLEVQVRESLAKSSQVAIEALSAMPTVRSFANEEGEAQKFREKLQEIKTLNQKEAVAYAVNSWTTSISGMLLKVGILYIGGQLVTSGAVSSGNLVTFVLYQMQFTQAVEVLLSIYPRVQKAVGSSEKIFEYLDRTPRCPPSGLLTPLHLEGLVQFQDVSFAYPNRPDVLVLQGLTFTLRPGEVTALVGPNGSGKSTVAALLQNLYQPTGGQLLLDGKPLPQYEHRYLHRQVAAVGQEPQVFGRSLQENIAYGLTQKPTMEEITAAAVKSGAHSFISGLPQGYDTEVDEAGSQLSGGQRQAVALARALIRKPCVLILDDATSALDANSQLQVEQLLYESPERYSRSVLLITQHLSLVEQADHILFLEGGAIREGGTHQQLMEKKGCYWAMVQAPADAPE chain 2: MRLPDLRPWTSLLLVDAALLWLLQGPLGTLLPQGLPGLWLEGTLRLGGLWGLLKLRGLLGFVGTLLLPLCLATPLTVSLRALVAGASRAPPARVASAPWSWLLVGYGAAGLSWSLWAVLSPPGAQEKEQDQVNNKVLMWRLLKLSRPDLPLLVAAFFFLVLAVLGETLIPHYSGRVIDILGGDFDPHAFASAIFFMCLFSFGSSLSAGCRGGCFTYTMSRINLRIREQLFSSLLRQDLGFFQETKTGELNSRLSSDTTLMSNWLPLNANVLLRSLVKVVGLYGFMLSISPRLTLLSLLHMPFTIAAEKVYNTRHQEVLREIQDAVARAGQVVREAVGGLQTVRSFGAEEHEVCRYKEAKEQCRQLYWRRDLERALYLLIRRVLHLGVQMLMLSCGLQQMQDGELTQGSLLSFMIYQESVGSYVQTLVYIYGDMLSNVGAAEKVFSYMDRQPNLPSPGTLAPTTLQGVVKFQDVSFAYPNRPDRPVLKGLTFTLRPGEVTALVGPNGSGKSTVAALLQNLYQPTGGQVLLDEKPISQYEHCYLHSQVVSVGQEPVLFSGSVRNNIAYGLQSCEDDKVMAAAQAAHADDFIQEMEHGIYTDVGEKGSQLAAGQKQRLAIARALVRDPRVLILDEATSALDVQCEQALQDWNSRGDRTVLVIAHRLQTVQRAHQILVLQEGKLQKLAQL | 7.59 ± .31 | restored surface expression | –

From patent US6284879A, “Transport associated protein splice variants” (The General Hospital Corporation, priority 1998, dated 2001)
